Results from the supplement of paper PMC11246515.
± gives the standard deviation of the averaged measurements.

Assay: total protein half-life in vivo (active degradation + dilution); higher = more stable protein
[1] = E. coli NCM3722 delta-clpP delta-lon delta-hslV, growth: N-lim chemostat, doubling time 6 h
[2] = wild type E. coli NCM3722, growth: P-lim chemostat, doubling time 6 h
[3] = E. coli NCM3722 delta-clpP, growth: N-lim chemostat, doubling time 6 h
[4] = E. coli NCM3722 delta-lon, growth: N-lim chemostat, doubling time 6 h
[5] = E. coli NCM3722 delta-smpB, growth: N-lim chemostat, doubling time 6 h
[6] = wild type E. coli NCM3722, growth: C-lim chemostat, doubling time 12 h
[7] = wild type E. coli NCM3722, growth: N-lim chemostat, doubling time 6 h
[8] = E. coli NCM3722 delta-hslV, growth: N-lim chemostat, doubling time 6 h
[9] = wild type E. coli NCM3722, growth: C-lim chemostat, doubling time 3 h
[10] = wild type E. coli NCM3722, growth: C-lim chemostat, doubling time 6 h
[11] = wild type E. coli NCM3722, growth: N-lim chemostat, doubling time 12 h
[12] = wild type E. coli NCM3722, growth: P-lim chemostat, doubling time 12 h

Sequence	total protein half-life in vivo [1] [h]	total protein half-life in vivo [2] [h]	total protein half-life in vivo [3] [h]	total protein half-life in vivo [4] [h]	total protein half-life in vivo [5] [h]	total protein half-life in vivo [6] [h]	total protein half-life in vivo [7] [h]	total protein half-life in vivo [8] [h]	total protein half-life in vivo [9] [h]	total protein half-life in vivo [10] [h]	total protein half-life in vivo [11] [h]	total protein half-life in vivo [12] [h]
MSDKKKRSMAGLPWIAAMAFFMQALDATILNTALPAIAHSLNRSPLAMQSAIISYTLTVAMLIPVSGWLADRFGTRRIFTLAVSLFTLGSLACALSNSLPQLVVFRVIQGIGGAMMMPVARLALLRAYPRNELLPVLNFVAMPGLVGPILGPVLGGVLVTWATWHWIFLINIPIGIAGLLYARKHMPNFTTARRRFDITGFLLFGLSLVLFSSGIELFGEKIVASWIALTVIVTSIGLLLLYILHARRTPNPLISLDLFKTRTFSIGIVGNIATRLGTGCVPFLMPLMLQVGFGYQAFIAGCMMAPTALGSIIAKSMVTQVLRRLGYRHTLVGITVIIGLMIAQFSLQSPAMAIWMLILPLFILGMAMSTQFTAMNTITLADLTDDNASSGNSVLAVTQQLSISLGVAVSAAVLRVYEGMEGTTTVEQFHYTFITMGIITVASAAMFMLLKTTDGNNLIKRQRKSKPNRVPSESE	6.64	5.92	–	–	–	–	–	–	–	–	–	–
MFDVLMYLFETYIHTEAELRVDQDKLEQDLTDAGFEREDIYNALLWLEKLADYQEGLAEPMQLASDPLSMRIYTPEECERLDASCRGFLLFLEQIQVLNLETREMVIERVLALDNAEFELDDLKWVILMVLFNIPGCENAYQQMEELLFEVNEGMLH [P0A828]	5.9529 ± 0.00025	–	0.182	0.569	0.365	0.0972	1.05	–	–	–	–	–
MSEISRQEFQRRRQALVEQMQPGSAALIFAAPEVTRSADSEYPYRQNSDFWYFTGFNEPEAVLVLIKSDDTHNHSVLFNRVRDLTAEIWFGRRLGQDAAPEKLGVDRALAFSEINQQLYQLLNGLDVVYHAQGEYAYADVIVNSALEKLRKGSRQNLTAPATMIDWRPVVHEMRLFKSPEEIAVLRRAGEITAMAHTRAMEKCRPGMFEYHLEGEIHHEFNRHGARYPSYNTIVGSGENGCILHYTENECEMRDGDLVLIDAGCEYKGYAGDITRTFPVNGKFTQAQREIYDIVLESLETSLRLYRPGTSILEVTGEVVRIMVSGLVKLGILKGDVDELIAQNAHRPFFMHGLSHWLGLDVHDVGVYGQDRSRILEPGMVLTVEPGLYIAPDAEVPEQYRGIGIRIEDDIVITETGNENLTASVVKKPEEIEALMVAARKQ	5.813 ± 0.036	5.95 ± 0.51	6.45 ± 0.88	6 ± 0.092	5.36 ± 0.3	12.4 ± 1.5	5.53 ± 0.15	5.23 ± 0.15	3.12 ± 0.1	6 ± 0.22	10.3 ± 0.72	12.8 ± 0.42
MATPHINAEMGDFADVVLMPGDPLRAKYIAETFLEDAREVNNVRGMLGFTGTYKGRKISVMGHGMGIPSCSIYTKELITDFGVKKIIRVGSCGAVLPHVKLRDVVIGMGACTDSKVNRIRFKDHDFAAIADFDMVRNAVDAAKALGIDARVGNLFSADLFYSPDGEMFDVMEKYGILGVEMEAAGIYGVAAEFGAKALTICTVSDHIRTHEQTTAAERQTTFNDMIKIALESVLLGDKE [P0ABP8]	5.35 ± 0.52	5.65 ± 0.38	4.9 ± 0.79	5.28 ± 0.12	4.44 ± 0.086	12.6 ± 1.4	4.38 ± 0.34	4.26 ± 0.18	3.14 ± 0.25	5.99 ± 0.48	7.48 ± 0.6	13.1 ± 0.34
MAYLVAVTACVSGVAHTYMAAERLEKLCLLEKWGVSIETQGALGTENRLADEDIRRADVALLITDIELAGAERFEHCRYVQCSIYAFLREPQRVMSAVRKVLSAPQQTHLILE	4.98	–	–	–	–	–	–	–	–	–	–	–
MIKFLSALILLLVTTAAQAERIRDLTSVQGVRQNSLIGYGLVVGLDGTGDQTTQTPFTTQTLNNMLSQLGITVPTGTNMQLKNVAAVMVTASLPPFGRQGQTIDVVVSSMGNAKSLRGGTLLMTPLKGVDSQVYALAQGNILVGGAGASAGGSSVQVNQLNGGRITNGAVIERELPSQFGVGNTLNLQLNDEDFSMAQQIADTINRVRGYGSATALDARTIQVRVPSGNSSQVRFLADIQNMQVNVTPQDAKVVINSRTGSVVMNREVTLDSCAVAQGNLSVTVNRQANVSQPDTPFGGGQTVVTPQTQIDLRQSGGSLQSVRSSASLNNVVRALNALGATPMDLMSILQSMQSAGCLRAKLEII [P0A6S3]	–	–	–	–	–	8.58 ± 1.3	–	–	2.203 ± 0.022	4.68	–	–
MKFSELWLREWVNPAIDSDALANQITMAGLEVDGVEPVAGSFHGVVVGEVVECAQHPNADKLRVTKVNVGGDRLLDIVCGAPNCRQGLRVAVATIGAVLPGDFKIKAAKLRGEPSEGMLCSFSELGISDDHSGIIELPADAPIGTDIREYLKLDDNTIEISVTPNRADCLGIIGVARDVAVLNQLPLVQPEIVPVGATIDDTLPITVEAPEACPRYLGRVVKGINVKAPTPLWMKEKLRRCGIRSIDAVVDVTNYVLLELGQPMHAFDKDRIEGGIVVRMAKEGETLVLLDGTEAKLNADTLVIADHNKALAMGGIFGGEHSGVNDETQNVLLECAFFSPLSITGRARRHGLHTDASHRYERGVDPALQHKAMERATRLLIDICGGEAGPVIDITNEATLPKRATITLRRSKLDRLIGHHIADEQVTDILRRLGCEVTEGKDEWQAVAPSWRFDMEIEEDLVEEVARVYGYNNIPDEPVQASLIMGTHREADLSLKRVKTLLNDKGYQEVITYSFVDPKVQQMIHPGVEALLLPSPISVEMSAMRLSLWTGLLATVVYNQNRQQNRVRIFESGLRFVPDTQAPLGIRQDLMLAGVICGNRYEEHWNLAKETVDFYDLKGDLESVLDLTGKLNEVEFRAEANPALHPGQSAAIYLKGERIGFVGVVHPELERKLDLNGRTLVFELEWNKLADRVVPQAREISRFPANRRDIAVVVAENVPAADILSECKKVGVNQVVGVNLFDVYRGKGVAEGYKSLAISLILQDTSRTLEEEEIAATVAKCVEALKERFQASLRD	6.244 ± 0.025	6.01 ± 0.4	5.88 ± 0.61	5.98 ± 0.44	5.33 ± 0.063	12.5 ± 0.56	5.41 ± 0.088	5.77 ± 0.16	3.37 ± 0.066	6.34 ± 0.37	10.4 ± 0.24	12 ± 0.58
MAESFTTTNRYFDNKHYPRGFSRHGDFTIKEAQLLERHGYAFNELDLGKREPVTEEEKLFVAVCRGEREPVTEAERVWSKYMTRIKRPKRFHTLSGGKPQVEGAEDYTDSDD [P0ADN2]	–	3.14 ± 0.43	–	5.14 ± 0.96	3.28 ± 0.088	5.73	3.09 ± 0.15	–	2.19 ± 0.043	4.55 ± 0.35	5.68 ± 0.092	5.53 ± 0.6
